T1: Recombinant Eap protein (C-terminal MAP domain and adjacent basic region of S. aureus Eap), His tag excised (Staphylococcus aureus Newman, UniProt A6QIG2 481-584)
T1 construct: The tag was removed with HRV 3C protease before coating on the plate; also called immobilized Eap; untagged Eap
T1 sequence: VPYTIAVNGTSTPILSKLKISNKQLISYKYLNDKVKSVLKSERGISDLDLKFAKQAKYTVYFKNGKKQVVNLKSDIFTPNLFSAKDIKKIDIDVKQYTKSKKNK

T2: Recombinant EapH2 protein (MAP domain of S. aureus EapH2), His tag excised (Staphylococcus aureus Newman, UniProt A0A0H3K729 24-144)
T2 construct: The N-terminal His-tag was removed with HRV 3C protease; also called immobilized EapH2; untagged EapH2
T2 sequence: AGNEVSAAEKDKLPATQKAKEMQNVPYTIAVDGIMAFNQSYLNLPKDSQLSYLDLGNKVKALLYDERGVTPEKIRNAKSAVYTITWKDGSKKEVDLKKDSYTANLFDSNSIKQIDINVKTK

T3: Recombinant His-tagged EapH2 protein (MAP domain of S. aureus EapH2) (Staphylococcus aureus Newman, UniProt A0A0H3K729 24-144)
T3 construct: Made in E. coli and used as the soluble His-tagged ligand; not shown: N-terminal His-tag and 3C protease site from vector pOPIN-F
T3 sequence: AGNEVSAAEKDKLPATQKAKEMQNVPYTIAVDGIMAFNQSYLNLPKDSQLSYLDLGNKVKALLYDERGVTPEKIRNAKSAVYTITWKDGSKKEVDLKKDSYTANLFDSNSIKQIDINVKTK


Key:
[1] = molecular target: T1, Recombinant Eap protein (C-terminal MAP …); assay: plate interaction assay (EIA): untagged protein immobilised, His-tagged ligand titrated, anti-His alkaline phosphatase detection, Kd by non-linear regression
[2] = molecular target: T2, Recombinant EapH2 protein (MAP domain …); assay: as above
[3] = molecular target: T3, Recombinant His-tagged EapH2 protein …; assay: plate interaction assay (EIA): untagged protein immobilised, His-tagged ligand titrated, anti-His alkaline phosphatase detection

Binder	Kd [1] [nM]	Kd [2] [nM]	binding result [3]
Recombinant His-tagged Eap protein (C-terminal MAP domain and adjacent basic region of S. aureus Eap) (other, not shown: N-terminal His-tag and 3C protease site from vector pOPIN-F) VPYTIAVNGTSTPILSKLKISNKQLISYKYLNDKVKSVLKSERGISDLDLKFAKQAKYTVYFKNGKKQVVNLKSDIFTPNLFSAKDIKKIDIDVKQYTKSKKNK	80	82	–
Recombinant EapH1 protein (MAP domain of S. aureus EapH1), His tag excised (other, The N-terminal His-tag was removed with HRV 3C protease; also called immobilized EapH1; untagged EapH1) PSHEASADSNNGYKEMTVDGYHTVPYTISVDGITALHRTYFIFPENKNVLYQEIDSKVKNELASQRGVTTEKINNAQTATYTLTLNDGNKKVVNLKKNDDAKNSIDPSTIKQIQIVVK	–	–	binds

Reference: patent publication US20190276502A1 (OXFORD UNIVERSITY INNOVATION, published 2019)
